Among the data in patent publication US5849897 are CPM bound and fold increase (FACS, positive against negative clones) values, retold here.

The target of test [1] is human ciliary neurotrophic factor receptor (CNTFR) (human). The experiment in a line: indirect binding on COS cells transfected with clone I10: CNTF-myc, 9E10, 125I goat anti-mouse; hand-held gamma counter.
For test [2] the target is unchanged. The experiment in a line: indirect binding on COS cells transfected with clone I9: CNTF-myc, 9E10, 125I goat anti-mouse; hand-held gamma counter.
For test [3] the target is unchanged. Briefly: indirect binding: CNTF-myc, 9E10, FITC-labelled goat anti-mouse antibody, FACS of transfected COS cells.
Test [4] has the same target. Briefly: indirect binding on COS cells transfected with clone I4: CNTF-myc, 9E10, 125I goat anti-mouse; hand-held gamma counter.
For test [5] the target is unchanged. The experiment in a line: indirect binding on COS cells transfected with clone I11: CNTF-myc, 9E10, 125I goat anti-mouse; hand-held gamma counter.
Test [6] shares this target. Briefly: indirect binding on COS cells transfected with clone I15: CNTF-myc, 9E10, 125I goat anti-mouse; hand-held gamma counter.
Test [7] has the same target. Briefly: indirect binding on COS cells transfected with clone I14: CNTF-myc, 9E10, 125I goat anti-mouse; hand-held gamma counter.
Test [8] has the same target. The experiment in a line: indirect binding on COS cells transfected with clone I2: CNTF-myc, 9E10, 125I goat anti-mouse; hand-held gamma counter.
Test [9] has the same target. The experiment in a line: indirect binding on COS cells transfected with clone I6: CNTF-myc, 9E10, 125I goat anti-mouse; hand-held gamma counter.
Test [10] shares this target. Briefly: indirect binding on COS cells transfected with clone I12: CNTF-myc, 9E10, 125I goat anti-mouse; hand-held gamma counter.
Test [11] shares this target. The experiment in a line: indirect binding on COS cells transfected with clone I7: CNTF-myc, 9E10, 125I goat anti-mouse; hand-held gamma counter.
Test [12] shares this target. Briefly: indirect binding on COS cells transfected with clone I1: CNTF-myc, 9E10, 125I goat anti-mouse; hand-held gamma counter.
For test [13] the target is unchanged. Briefly: indirect binding on COS cells transfected with clone I8: CNTF-myc, 9E10, 125I goat anti-mouse; hand-held gamma counter.
For test [14] the target is unchanged. The experiment in a line: indirect binding on COS cells transfected with clone I5: CNTF-myc, 9E10, 125I goat anti-mouse; hand-held gamma counter.
The target is the same in test [15]. Briefly: indirect binding on COS cells transfected with clone I13: CNTF-myc, 9E10, 125I goat anti-mouse; hand-held gamma counter.

As for CNTF/myc (ligand), the CPM bound is 4500 CPM in test [1]; 7000 CPM in test [2]; 9000 CPM in [4]; 7000 CPM in test [5]; 8000 CPM in test [6]; 10000 CPM in test [7]. Also, the CPM bound in [8] was found to be 8500 CPM; in [9] it was 1600 CPM; in test [10], 5000 CPM; in test [11], 6000 CPM; in test [12], 2000 CPM; in test [13], 7500 CPM. In addition, the CPM bound in [14] turned out to be 2000 CPM; in [15], 8000 CPM. In addition, in test [3], the fold increase (FACS, positive against negative clones) is 100 fold.
